We go through 41 sequences from the nanobody polyreactivity screen of Harvey et al. (2022).

This data set in a line: yeast display, Sf9 membrane polyspecificity reagent, FACS + sequencing; frameworks hold sequencing errors. In a few lines:
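A synthetic nanobody library was expressed on Saccharomyces cerevisiae BJ5465 by galactose induction for 36–48 hours. The library was stained for 1 hour at 4 °C with 10% biotinylated, detergent-solubilized Sf9 membrane reagent and enriched with streptavidin microbeads before FACS. Low and high (top ~1%) gates were set on anti-HA fluorescence for expression and streptavidin fluorescence for reagent binding, and each polyreactivity label reflects the gate of origin.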
Take “QVQLVESGGGLVQAGGSLRLSCAASGITFWKYTMGWYRQAPGKERELVAAITGRGGSTYYADSVKGRFTISRDNAMNTVYLQMNRLKPEDTAVYYCAAELRPGYRSSYGLIYDYWGQGTQVTVSS”: the “polyreactivity (PSR sort gate)” value is on record as “low polyreactivity”. With “QVQLVESGGGLVQAGGSLRLSCAASGITFWNNAMGWYRQAPGKERELVATISSNGGRTYYADSVKGRFTISRDNAKNTVYLQMNSLKPEDTAVYYCNAARRAYGYNYWGQGTQVTVSS”, the “polyreactivity (PSR sort gate)” value is listed as “low polyreactivity”. For “QVQLVESGGGLVQAGGSLRLSCAASGITFWNYAMGWYRQAPGKERELVARISRGGSTNYADSVKGRFTISRDNAKNTVYLQMNSLKPEDNAVYYCAARWYSSTQTGNYWGQGTQVTVSS” the value was “high polyreactivity”; for “QVQLVESGGGLVQAGGSLRLSCAASGITFWSNAMGWYRQAPGKERELVAAITSSGGSTYYADSVKGRFTISRDNAKNNVYLQMNSLKPEDTAVYYCAAPISRSAGWDSYDYWGQGTQVTVSS”, “low polyreactivity”; for “QVQLVESGGGLVQAGGSLRLSCAASGITFWTYAMGWYIQAPGKERELVAAISNGGSTSYADSVKGRFTISRDNAKNTVYLQMNSLKPEDTAVYYCAADWATHRPWYWWVYYWGQGTQVTVSS”, “low polyreactivity”. On to “QVQLVESGGGLVQAGGSLRLSCAASGITFWYYAMGWYRQAPGKERELVAVISRGGSTYYADSVKGRFTISRDNAKNTVYLQMNSLKPEDTAVYYCAARPRWYTYTRQEYDYWGQGTQVTVSS”, for which the “polyreactivity (PSR sort gate)” value is on record as “high polyreactivity”. With “QVQLVESGGGLVQAGGSLRLSCAASGITFYDYAMGWYRQAPGKERELVAAINSSGVRTYYADSVKGRFTISRDNAKNTVYLQMNSLKPEVTAVYYCAAVRRGPYISRSDMDYYWGQGTQVTVSS”, the “polyreactivity (PSR sort gate)” value is “high polyreactivity”.

“QVQLVESGGGLVQAGGSLRLSCAASGITFYDYAMGWYRQAPGKERELVAAISFSGSRTYYADSVKGRFTISRDIAKNTVYLQMNSLKPEDTAVYYCAASQARNYKIYDYWGQGTQVTVSS”: the “polyreactivity (PSR sort gate)” value is “high polyreactivity”. In the case of “QVQLVESGGGLVQAGGSLRLSCAASGITFYDYTMGWYRQAPGKERELVAAISSRGGSTYYADSVKGRFTISRDNAKNTVYLQMNSLKPEDTAVYYCNADYIYSFYWSFYEYDYWGQGTQVTVSS”, the “polyreactivity (PSR sort gate)” value was “high polyreactivity”. For the sequence “QVQLVESGGGLVQAGGSLRLSCAASGITFYEYDMGWYRQAPGKERELVAAITSRGGSTYYADSVKGRFTISRDNAKNTVYLQMNSLKPEDTAVYYCNAVRGWLYVFSYPYWDDEYWGQGTQVTVSS”, the “polyreactivity (PSR sort gate)” value was “high polyreactivity”. As for “QVQLVESGGGLVQAGGSLRLSCAASGITFYGNAMGWYRQAPGKERELVAAINWGGTGTYYADSVKGRFTISRDNAKNTVYLQMNSLKPEDTAVYYCAAEVYTWGQGTQVTVSS”, the “polyreactivity (PSR sort gate)” value is recorded as “low polyreactivity”. As to “QVQLVESGGGLVQAGGSLRLSCAASGITFYGYAMGWYRQAPGKERELVASISYGGGSTYYADSVKGRFTISRDNAKNTVYFQLNSLKPEDTAVYYCAAQAATYYSGYYYWGQGTQVTVSS”, the “polyreactivity (PSR sort gate)” value is listed as “high polyreactivity”. Regarding “QVQLVESGGGLVQAGGSLRLSCAASGITFYGYTMGWYRQAPGKERELVATITRGGSTYYADSVKGRFTISRDNAKNSVYLQMNSLKPEDTAVYYCAADLKGNYYLGIARYVLYYWGQGTQVTVSS”, the “polyreactivity (PSR sort gate)” value is reported as “low polyreactivity”. Turning to “QVQLVESGGGLVQAGGSLRLSCAASGITFYIKAMGWYRQAPGKERELVAVIDSRGSSTFYADSVKGRFTISRDNAKNTVYLQMNSLKPEDTAVYYCAVEGYPGRYRDPGDLYYYWGQGTQVTLSS”, the “polyreactivity (PSR sort gate)” value is “low polyreactivity”. As to “QVQLVESGGGLVQAGGSLRLSCAASGITFYINAMGWYRQAPAKERELVAVIDSRGSSTFYADSVKGRFTISRDNAKNTVYLLMNSLKPEDTAVYYCAVEGYPGRYRDPGDLYYYWGQGTQVTLSS”, the “polyreactivity (PSR sort gate)” value is “low polyreactivity”.

On to “QVQLVESGGGLVQAGGSLRLSCAASGITFYKYAMGWYRQAPGKERELVASISNGGNTNYADSVKGRFTISSDNAKNTVYLQMNSLKPEDTAVYYCAAGRQWYSYYRNDYWGQGTQVTVSS”, for which the “polyreactivity (PSR sort gate)” value was “high polyreactivity”. With “QVQLVESGGGLVQAGGSLRLSCAASGITFYKYVMGWYRQAPGKEREFVAAITWSGDSTYADSVKGRFTISRDNAKNTVYLQMNSLKPEDTAVYYCAARTWSRRQREYDYWGQGTQVTVSS”, the “polyreactivity (PSR sort gate)” value is on record as “high polyreactivity”.

With “QVQLVESGGGLVQAGGSLRLSCAASGITFYLNAMGWYRQAPGKDRELVADITVSGGSTYYADSVKGRFTISRDNAKNTVYLQMNSLKPEDTAVYYCAADLTISYSQEYYYWGQGTQVTLSS”, the “polyreactivity (PSR sort gate)” value is reported as “low polyreactivity”.

Consider “QVQLVESGGGLVQAGGSLRLSCAASGITFYLYTMGWYRQAPGKERELVAAISWRGGGTYYADSVKGRFTISRDNAKNTVYLQMNSLKPEDTAVYYCATVRTYARNDYWGQGTQVTVSS”, for which the “polyreactivity (PSR sort gate)” value is “high polyreactivity”. Regarding “QVQLVESGGGLVQAGGSLRLSCAASGITFYPNGMGWYRQAPGKEREFVAAISSSGGSTYYADSVKGRFTISRDNAKNSVYLQMNSLKPEDTAVYYCAAQYYAMSYYGYGYWGQGTQVTVSS”, the “polyreactivity (PSR sort gate)” value is on record as “low polyreactivity”. For “QVQLVESGGGLVQAGGSLRLSCAASGITFYRNAMGWYRQAPGKERELVATITRGGSTYYADSVKGRFTISRDNAKNTVYLQMNSLKPEDTAVYYCNRAGGYRTTFYSWGQGTQVTVSS” the value was “high polyreactivity”. Consider “QVQLVESGGGLVQAGGSLRLSCAASGITFYRYALGWYRQAPGKERELVAAISSSGGSTYYADSVKGRFTISRDNAKNTVYLQMNRLKPEDTAVYYCNAYYSVEYYYWGQGTQVTVSS”, for which the “polyreactivity (PSR sort gate)” value was “high polyreactivity”. Turning to “QVQLVESGGGLVQAGGSLRLSCAASGITFYRYAMGWYRPAPGKERELVAAISSRGGRTYYADSVKGRFTISRDNEKNTVYLQMNSLKPEDTGVYYCAKGGIVGSTLEYDYWGQGTQVTVSS”, the “polyreactivity (PSR sort gate)” value is recorded as “high polyreactivity”. Consider “QVQLVESGGGLVQAGGSLRLSCAASGITFYRYAMGWYRQAPGKERELVAAISWSGGSTYYADSVKGRFTFSRDNAKNTVYLQMNSLKPEDTAVYYCNKYIRYPFKRYGYWGQGTQVTLSS”, for which the “polyreactivity (PSR sort gate)” value was “high polyreactivity”. Regarding “QVQLVESGGGLVQAGGSLRLSCAASGITFYRYAMGWYRQAPGKERELVAAITGSGDSTYYADSVKGRFTISRDNAKNTVYLQMNSLKPEDTAVYYCNTDYGRRYDYWGQGTQVTVSS”, the “polyreactivity (PSR sort gate)” value is given as “high polyreactivity”. Regarding “QVQLVESGGGLVQAGGSLRLSCAASGITFYRYAMGWYRQAPGKERELVAAITRSVGRTYYADSVKGRFTISRDNAKNTVYLQMNSLKPEDTAVYYCAADSPYYRGDYYWGLGTQVTVSS”, the “polyreactivity (PSR sort gate)” value is “high polyreactivity”. With “QVQLVESGGGLVQAGGSLRLSCAASGITFYRYVMGWYRQAPAKERELVAAITTGDSTSYADSVKGRFTISRDNAKNTVYLQMNSLKPEDTAVYYCAAVYYTALANYDYWGQGTQVTVSS”, the “polyreactivity (PSR sort gate)” value is recorded as “low polyreactivity”.

In the case of “QVQLVESGGGLVQAGGSLRLSCAASGITFYSYAMGWYRQAPGKERELVAAITRGGSTYYADSVKGRFTISRDNAKNTVYLQMNSLKPEDTAVYYCAASPLGGYGYWGQGTQVTVSS”, the “polyreactivity (PSR sort gate)” value is listed as “high polyreactivity”. Consider “QVQLVESGGGLVQAGGSLRLSCAASGITFYVNAMGWYRQAPGKERELVAGIDSGGSTYYADSVKGRFTISRDNAKNTVYLQMNSLKPEDTAVYYCAARGSDYIRWYVGGRYGYWGQGTQVTVSS”, for which the “polyreactivity (PSR sort gate)” value is given as “low polyreactivity”.

Consider “QVQLVESGGGLVQAGGSLRLSCAASGITFYVNAMGWYRQAPGKERELVAVITFGGGSTYYADSVKGRFTISRDNAKNTVYLQMNSLKPEDTAVYYCAKDPTYSPYLPGPIFYYKEDYWGQGTQVTVSS”, for which the “polyreactivity (PSR sort gate)” value is reported as “low polyreactivity”. On to “QVQLVESGGGLVQAGGSLRLSCAASGITFYVYAMGWYIPAPGKERELVAAINYDSGSTYYADSVKGRFTISRDNAKNTVYLQMNSLKPEDTAVYYCATDGVNPFYAYDYWGQGTQVTVSS”, for which the “polyreactivity (PSR sort gate)” value is “low polyreactivity”. For “QVQLVESGGGLVQAGGSLRLSCAASGITFYVYAMGWYRQAPGKERELVAAISSGSSTYYADSVKGRFTISRDNAKNTVYLQMNSLKPEDTAVYYCAARYRKYLSEYWGQGTQVTVSS” the value was “high polyreactivity”; for “QVQLVESGGGLVQAGGSLRLSCAASGITFYVYAMGWYRQAPGKERELVAAISSGSSTYYSDSVKGRFTISRDNAKNTVYLQMNSLKPEDTAVYYCAARYRKYLSEYWGQGTQVTVSS”, “high polyreactivity”; for “QVQLVESGGGLVQAGGSLRLSCAASGITFYWYAMGWYRQAPGKERELVASITGNGGGTSYADSVKGRFTISRDNAKNTVYLQMNSLKPEDTAVYYCNTSVGGKEYDSWGQGTQVTVSS”, “low polyreactivity”. Turning to “QVQLVESGGGLVQAGGSLRLSCAASGITFYYYAMGWYRQAPGKERELVAAISFRGGSTYYADSVKGRFTISRDNAKNTVYLQMNSLKPEDTAVYYCAAETSPSWYTWVTYDYWGQGTKVTVSS”, the “polyreactivity (PSR sort gate)” value is listed as “high polyreactivity”. Take “QVQLVESGGGLVQAGGSLRLSCAASGITIGRNTMGWSRQAPRKERELVAAIDSGGNTYADSVKGRFSISRDNAMNTVYLQMNSLKPEDTAVYYCAVDGGEFSSYGFWGQGTQVTVSS”: the “polyreactivity (PSR sort gate)” value is on record as “low polyreactivity”. As for “QVQLVESGGGLVQAGGSLRLSCAASGITINGYVMGWYRQAPGKERELVAAITSGARTYYADSVKGRFTISRDNAKNTVYLQMNSLKPEDTAVYYCAASIWLYRYYYWGQGTQVTVSS”, the “polyreactivity (PSR sort gate)” value is “high polyreactivity”. Consider “QVQLVESGGGLVQAGGSLRLSCAASGITIVNYVMGWYRQAPGKERELVAAISIGGGTYYADSVKGRFTISRDNAKNTVYLQINSLKPEDTAVYYCNASYGGLSFYIGVYVTGYDYWGQGTQVTVSS”, for which the “polyreactivity (PSR sort gate)” value is recorded as “low polyreactivity”. On to “QVQLVESGGGLVQAGGSLRLSCAASGITIVRNAMGWYRQAPGKERELVAAISSGGSTYYADSVKGRFTISRDNAKISVYLQMNSLKPEDTAVYYCAAVPEYYEYSPYDYWGQGTQVTVSS”, for which the “polyreactivity (PSR sort gate)” value is reported as “low polyreactivity”. As to “QVQLVESGGGLVQAGGSLRLSCAASGITIVRYAMGWSRQAPGKERELVAAINRSGGSTYYADSVKGRFTISRDNAKNTVYLQMNSLKPEDTAVYYCAARLYGKYDPPGYYYWGQGTQVTVSS”, the “polyreactivity (PSR sort gate)” value is given as “high polyreactivity”.

In the case of “QVQLVESGGGLVQAGGSLRLSCAASGITIYEYAMGWYRQAPGKERELVAAITSGGTTNYADSVKGRFTISRDNAKNTVYLQMNSLKPEDTAVYYCAKDGGEGYDYWGQGTQVTVSS”, the “polyreactivity (PSR sort gate)” value is reported as “low polyreactivity”.
